This test deals with T1, IL-2αβγ triple receptor (Homo sapiens, UniProt P01589+P14784+P31785).
T1 construct: Uniprot P01589 1Met-551Ile constructed into plasmid pcDNA3.1/zeo; Uniprot P14784 1Met-551Val constructed into plasmid pcDNA3.1(+); Uniprot P31785 1Met-551Thr was constructed into plasmid pcDNA3.1/zeo; expressed in transfected cells; host or cells: 293EC18 cells, transient co-transfection with pCMV/JAK3 and PGL4.52/STAT5RE
T1 sequence (P01589 22-272): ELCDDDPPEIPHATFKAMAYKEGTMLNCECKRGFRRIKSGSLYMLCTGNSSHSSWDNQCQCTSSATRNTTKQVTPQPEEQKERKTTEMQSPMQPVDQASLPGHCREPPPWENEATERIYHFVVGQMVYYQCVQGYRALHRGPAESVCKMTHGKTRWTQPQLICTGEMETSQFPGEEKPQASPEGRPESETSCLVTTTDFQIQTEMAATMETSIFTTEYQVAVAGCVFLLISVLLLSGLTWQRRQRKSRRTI
T1 sequence (P14784 27-551): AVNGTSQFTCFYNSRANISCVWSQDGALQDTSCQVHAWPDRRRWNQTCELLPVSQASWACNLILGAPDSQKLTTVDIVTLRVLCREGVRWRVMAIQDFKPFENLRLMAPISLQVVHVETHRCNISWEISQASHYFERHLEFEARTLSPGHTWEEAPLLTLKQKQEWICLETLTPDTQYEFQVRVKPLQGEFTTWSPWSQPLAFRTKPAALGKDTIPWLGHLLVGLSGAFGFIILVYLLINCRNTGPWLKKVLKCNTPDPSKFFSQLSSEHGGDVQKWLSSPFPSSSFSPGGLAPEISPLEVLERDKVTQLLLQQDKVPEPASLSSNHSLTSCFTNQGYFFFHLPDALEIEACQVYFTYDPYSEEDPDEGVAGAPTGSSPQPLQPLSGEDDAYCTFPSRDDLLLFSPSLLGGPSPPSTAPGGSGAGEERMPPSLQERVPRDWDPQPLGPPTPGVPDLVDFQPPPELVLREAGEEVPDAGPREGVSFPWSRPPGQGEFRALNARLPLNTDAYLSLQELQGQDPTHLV
T1 sequence (P31785 23-369): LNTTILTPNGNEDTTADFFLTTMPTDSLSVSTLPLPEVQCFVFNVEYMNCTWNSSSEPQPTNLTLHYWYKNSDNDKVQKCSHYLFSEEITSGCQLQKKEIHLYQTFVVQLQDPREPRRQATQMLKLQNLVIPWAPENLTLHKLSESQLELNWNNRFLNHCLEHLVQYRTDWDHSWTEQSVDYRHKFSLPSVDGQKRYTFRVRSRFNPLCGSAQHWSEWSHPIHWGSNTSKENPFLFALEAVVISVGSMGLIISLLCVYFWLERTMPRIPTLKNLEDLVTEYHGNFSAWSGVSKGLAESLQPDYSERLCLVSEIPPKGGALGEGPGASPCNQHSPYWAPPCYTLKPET
Briefly: STAT5 reporter gene assay, activation of IL-2αβγ triple receptor in 293EC18/αβγ/JAK3/STAT5 cells. The settings on record: Example 4, Figure 6, 80k PEG. Type of test: cell-based. On the procedure:
Since the binding of IL-2 to the β and γ subunits of its receptor induces STAT5 phosphorylation, which subsequently leads to dimerization and translocation into the nucleus to promote target gene transcription, this example evaluates the ability of the mutant IL-2 polypeptides to induce signaling through the IL-2 receptor by measuring STAT5 phosphorylation.
Adherent 293EC18 cells were cultured to about 90% confluence using conventional methods. After trypsin digestion, the cells were resuspended in cell culture medium to 4×10^5 cells/ml and 50 µl/well were added to two 96-well cell culture plates. After incubation at 37°C for 48 h, the supernatant was aspirated and fresh culture medium was added. […]
Each IL2 mutant was diluted 4-fold in a gradient manner using PBS buffer, with a total of 11 dilutions and a starting concentration of 65.2 nM. […] Bio-Lite Luciferase Assay System reagents that have been mixed and equilibrated to room temperature were added to the cell culture plates to be tested at 100 µl/well, placed on a microplate shaker at 450 rpm to mix for 2 minutes, then allowed to stand at room temperature for 3 minutes, and the chemiluminescence value was detected with an enzyme plate reader.
The logarithm of the final concentration of each IL-2 mutant sample was used as the X-axis, and the chemiluminescence detection results were used as the Y-axis for plotting. Data were analyzed using the four-parameter logistic regression model in GraphPad Prism 9. Table 2 EC50 values for the activation of the IL-2αβγ triple receptor by PEG-IL-2 mutants as determined by a reporter gene assay.
According to the method of Example 3, each polyethylene glycol-modified mutant obtained in this example was assessed for the binding preference to the IL2 receptors by a reporter assay. Table 4 EC50 values for the activation of the IL-2αβγ triple receptor by PEG-IL-2 mutants as determined by a reporter gene assay. […]
A general note: A reporter such as luciferase makes a cellular process visible.

Consider one molecule from EP4631972A1, “SITE-SPECIFIC COUPLED PEGYLATED INTERLEUKIN-2 MUTANT WITH RECEPTOR AFFINITY PREFERENCE AND USE THEREOF” (priority 2022, dated 2024).

B1: 80K-1PEG-IL2-N88R-N77C: IL-2 mutant N88R, N77C, conjugation site 77, PEG molecular weight 80kD (conjugate)
chain: APTSSSTKKTQLQLEHLLLDLQMILNGINNYKNPKLTRMLTFKFYMPKKATELKHLQCLEEELKPLEEVLNLAQSKC(PEG 80 kDa)FHLRPRDLISRINVIVLELKGSETTFMCEYADETATIVEFLNRWITFSQSIISTLT
For B1, the “activation activity on the IL-2Rαβγ triple receptor compared with 80K-1PEG-IL2-N88R-D109C” value is listed as “slightly higher activation activity”.
